Assays:
HLA-B*40:01 = assay: IEDB peptide-MHC binding, purified MHC/competitive/fluorescence; filed as Kd, often an IC50 or EC50 that approximates it; ≥ and ≤ were set here for values at or beyond the usual limits of such assays; settings: source organism: Escherichia coli B7A
HLA-C*07:02 = assay: IEDB peptide-MHC binding, purified MHC/direct/fluorescence; filed as Kd, often an IC50 or EC50 that approximates it; ≥ and ≤ were set here for values at or beyond the usual limits of such assays; settings: source organism: Salmonella enterica subsp. enterica serovar Typhi str. CT18
HLA-A*02:01 [1] = assay: IEDB peptide-MHC binding, purified MHC/competitive/fluorescence; filed as Kd, often an IC50 or EC50 that approximates it; ≥ and ≤ were set here for values at or beyond the usual limits of such assays; settings: source organism: Salmonella enterica subsp. enterica serovar Typhi
HLA-A*24:02 = assay: as above
HLA-A*32:07 = assay: as above
HLA-B*15:01 = assay: as above
HLA-B*15:42 = assay: as above
HLA-B*27:05 = assay: as above; settings: source organism: Salmonella enterica subsp. enterica serovar Typhi
HLA-B*27:20 = assay: as above
HLA-B*39:01 = assay: as above
HLA-B*40:13 = assay: as above
HLA-B*45:06 = assay: as above
HLA-B*83:01 = assay: as above
HLA-C*06:02 [2] = assay: IEDB peptide-MHC binding, purified MHC/direct/fluorescence; filed as Kd, often an IC50 or EC50 that approximates it; ≥ and ≤ were set here for values at or beyond the usual limits of such assays
HLA-C*15:02 = assay: as above
HLA-A*32:15 = assay: IEDB peptide-MHC binding, purified MHC/competitive/fluorescence; filed as Kd, often an IC50 or EC50 that approximates it; ≥ and ≤ were set here for values at or beyond the usual limits of such assays
HLA-A*68:23 = assay: as above
HLA-B*35:01 = assay: as above; settings: source organism: Yersinia pestis Nepal516
HLA-C*04:01 [3] = assay: as above
HLA-C*14:02 = assay: as above
HLA-B*48:01 = assay: as above; settings: source organism: Burkholderia mallei SAVP1
HLA-C*04:01 [4] = assay: IEDB peptide-MHC binding, purified MHC/direct/fluorescence; filed as Kd, often an IC50 or EC50 that approximates it; ≥ and ≤ were set here for values at or beyond the usual limits of such assays
HLA-A*24:03 = assay: IEDB peptide-MHC binding, purified MHC/competitive/fluorescence; filed as Kd, often an IC50 or EC50 that approximates it; ≥ and ≤ were set here for values at or beyond the usual limits of such assays
HLA-A*03:01 [5] = assay: as above; settings: source organism: Cryptosporidium parvum Iowa II
HLA-C*12:03 = assay: IEDB peptide-MHC binding, purified MHC/direct/fluorescence; filed as Kd, often an IC50 or EC50 that approximates it; ≥ and ≤ were set here for values at or beyond the usual limits of such assays; settings: source organism: Bacillus anthracis str. A0488
HLA-A*01:01 = assay: as above; settings: source organism: Haemophilus influenzae
HLA-A*02:01 [6] = assay: as above
HLA-A*69:01 = assay: as above; settings: source organism: Haemophilus influenzae
HLA-A*02:06 = assay: IEDB peptide-MHC binding, purified MHC/competitive/fluorescence; filed as Kd, often an IC50 or EC50 that approximates it; ≥ and ≤ were set here for values at or beyond the usual limits of such assays; settings: source organism: Haemophilus influenzae
HLA-A*02:11 = assay: as above; settings: source organism: Haemophilus influenzae
HLA-A*03:01 [7] = assay: IEDB peptide-MHC binding, purified MHC/direct/fluorescence; filed as Kd, often an IC50 or EC50 that approximates it; ≥ and ≤ were set here for values at or beyond the usual limits of such assays; settings: source organism: Limestone Canyon virus
HLA-C*05:01 = assay: as above; settings: source organism: Orthohantavirus sinnombreense
HLA-A*03:19 = assay: IEDB peptide-MHC binding, purified MHC/competitive/fluorescence; filed as Kd, often an IC50 or EC50 that approximates it; ≥ and ≤ were set here for values at or beyond the usual limits of such assays; settings: source organism: Orthohantavirus sinnombreense
HLA-A*26:01 = assay: as above; settings: source organism: Orthohantavirus sinnombreense
HLA-B*18:01 = assay: as above; settings: source organism: Orthohantavirus sinnombreense
HLA-B*27:03 = assay: as above; settings: source organism: Orthohantavirus sinnombreense
HLA-B*51:01 = assay: as above; settings: source organism: Orthohantavirus sinnombreense
HLA-C*06:02 [8] = assay: as above; settings: source organism: Orthohantavirus sinnombreense
[9] = source organism: Salmonella enterica subsp. enterica serovar Typhi
[10] = source organism: Yersinia pestis Nepal516
[11] = source organism: Burkholderia mallei SAVP1
[12] = source organism: Escherichia coli str. K-12 substr. MG1655
[13] = source organism: Encephalitozoon cuniculi GB-M1
[14] = source organism: Cryptosporidium parvum Iowa II
[15] = source organism: Bacillus anthracis str. A0488
[16] = source organism: Orthohantavirus sinnombreense

Sequence GEHVPEIIL has a Kd (HLA-B*40:01) of 1.7 nM.

In the case of KQLELFWVI, the Kd (HLA-C*07:02) is reported as no less than 20 µM, the Kd (HLA-A*02:01 [1]) is reported as no more than 1 nM and the Kd (HLA-A*24:02; [9]) is reported as 0.2 nM. The Kd (HLA-A*32:07; [9]) was 1.1 nM, the Kd (HLA-B*15:01; [9]) was 497 nM and the Kd (HLA-B*15:42; [9]) was 2470 nM. For the same sequence, the Kd (HLA-B*27:05) was 66.1 nM, the Kd (HLA-B*27:20; [9]) was 1.3 nM and the Kd (HLA-B*39:01; [9]) was 6 nM. The Kd (HLA-B*40:13; [9]) was 4.2 nM, the Kd (HLA-B*45:06; [9]) was 0.833 µM and the Kd (HLA-B*83:01; [9]) was no less than 5 µM.

MMMSTAVAF gave a Kd (HLA-C*06:02 [2]; [10]) of no less than 20000 nM, a Kd (HLA-C*15:02; [10]) of no less than 20 µM and a Kd (HLA-A*32:07; [10]) of 94.5 nM. The Kd (HLA-A*32:15; [10]) was 248 nM, the Kd (HLA-A*68:23; [10]) was 650 nM and the Kd (HLA-B*15:01; [10]) was 541 nM. For the same sequence, the Kd (HLA-B*15:42; [10]) was no less than 5000 nM, the Kd (HLA-B*35:01) was 0.6 nM and the Kd (HLA-B*40:13; [10]) was 365 nM. It also gave a Kd (HLA-B*45:06; [10]) of no less than 5 µM, a Kd (HLA-B*83:01; [10]) of no less than 5 µM and a Kd (HLA-C*04:01 [3]; [10]) of 3.23 µM. The Kd (HLA-C*14:02; [10]) was 1.1 nM.

In the case of RQYERYTAL, the Kd (HLA-C*06:02 [2]; [11]) is reported as 1810 nM, the Kd (HLA-A*32:07; [11]) is reported as 7.5 nM and the Kd (HLA-B*15:42; [11]) is reported as 733 nM. For the same sequence, the Kd (HLA-B*27:20; [11]) was 0.3 nM, the Kd (HLA-B*40:13; [11]) was 37.7 nM and the Kd (HLA-B*45:06; [11]) was no less than 5 µM. It also gave a Kd (HLA-B*48:01) of 55.2 nM and a Kd (HLA-B*83:01; [11]) of no less than 5 µM.

RYDKSAADL showed a Kd (HLA-C*04:01 [4]; [12]) of no less than 20 µM, a Kd (HLA-A*24:03; [12]) of 474 nM and a Kd (HLA-B*39:01; [12]) of no less than 20000 nM.

Sequence TTLSIYFLL has a Kd (HLA-C*15:02; [13]) of 3.66 µM and a Kd (HLA-A*24:02; [13]) of 86.6 nM.

In the case of VGYYTFHPK, the Kd (HLA-A*03:01 [5]) is reported as 0.9 nM, the Kd (HLA-B*15:42; [14]) is reported as no less than 5000 nM and the Kd (HLA-B*45:06; [14]) is reported as no less than 5 µM. The Kd (HLA-B*83:01; [14]) was no less than 5 µM and the Kd (HLA-C*04:01 [3]; [14]) was no less than 5 µM.

YFIFVRAIL was tested, and the Kd (HLA-C*04:01 [4]; [15]) was no less than 20 µM, the Kd (HLA-C*12:03) was 436 nM and the Kd (HLA-A*24:03; [15]) was 36.7 nM.

In the case of YINMAWNLV, the Kd (HLA-A*01:01) is reported as 625 nM, the Kd (HLA-A*02:01 [6]; source organism: Haemophilus influenzae) is reported as 135 nM and the Kd (HLA-A*69:01) is reported as 639 nM. For the same sequence, the Kd (HLA-A*02:06) was no more than 0.1 nM and the Kd (HLA-A*02:11) was no more than 0.1 nM.

Sequence YTFTSLFSL has a Kd (HLA-A*02:01 [6]; source organism: Itapua hantavirus) of 1.5 nM, a Kd (HLA-A*03:01 [7]) of no less than 20 µM and a Kd (HLA-C*05:01) of no less than 20 µM. The Kd (HLA-A*03:19) was 3.07 µM, the Kd (HLA-A*26:01) was no less than 20 µM and the Kd (HLA-A*32:07; [16]) was 856 nM. For the same sequence, the Kd (HLA-A*32:15; [16]) was 82.2 nM, the Kd (HLA-A*68:23; [16]) was 14.2 nM and the Kd (HLA-B*15:42; [16]) was no less than 5000 nM. The Kd (HLA-B*18:01) was no less than 20 µM, the Kd (HLA-B*27:03) was no less than 20 µM and the Kd (HLA-B*45:06; [16]) was no less than 5 µM. It also gave a Kd (HLA-B*51:01) of no less than 20 µM, a Kd (HLA-B*83:01; [16]) of no less than 5 µM and a Kd (HLA-C*06:02 [8]) of 146 nM. The Kd (HLA-C*14:02; [16]) was 5.8 nM.

Reference: the Immune Epitope Database (IEDB)
